± gives the uncertainty stated by the source.
Test: self-splicing fitness, log relative to wild type (ln ratio); higher = more splicing; Tetrahymena group I intron in knt gene, E. coli kanamycin selection, DiMSum; sequences stand for … in CUCUCU…GGAGGGAAAAGUUAUCAGGCAUGCACCUGGUAGCUAGUCUUUAAACCAAUAGAUUGCAUCGGUUUAAAAGGCAAGACCGUCAAAUUGCGGGAAAGGGGUCAACAGCCGUUCAGUACCAAGUCUCAGGGGAAACUUUGAGAUGGCCUUGCAAAGGGUAUGGUAAUAAGCUGACGGACAUGGUCCUAACCACGCAGCCAAGUCCUAAGUCAACAGAUCUUCUGUUGAUAUGGAUGCAGUUCACAGACUAAAUGUCGGUCGGGGAAGAUGUAUUCUUCUCAUAAGAUAUAGUCGGACCUCUCCUUAAUGGGAGCUAGCGGAUGAAGUGAUGCAACACUGGAGCCGCUGGGAACUAAUUUGUAUGCGAAAGUAUAUUGAUUAGUUUUGGAGUACUCGUGGUCG
Outline: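 The eight P1ex-region nucleotides of an intron in the knt kanamycin-resistance gene on pET-22b(+) were all randomised and the library put into E. coli BL21(DE3). Six replicate transformations were grown overnight at 37°C or 30°C on LB agar with or without 25 μg/mL kanamycin, together with 100 μg/mL carbenicillin, 50 μM IPTG and 0.2% rhamnose. Colonies were pooled and amplicon-sequenced on an Illumina HiSeq 2500. Fitness from DiMSum is the error-weighted combination of wild-type-normalised replicate fold changes, kanamycin over none.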

Sequence | self-splicing fitness (ln) (30 °C) | self-splicing fitness (ln) (37 °C)
UCCUAGCAAUAUUACGCACG | -3.34 ± 0.37 | -1.87 ± 0.47
UCCUAGCAAUAUUACGCAGA | -1.87 ± 0.2 | -0.401 ± 0.15
UCCUAGCAAUAUUACGCCCC | -2.75 ± 0.45 | -2.12 ± 0.42
UCCUAGCAAUAUUACGCCGC | -3.1 ± 0.26 | -3.49 ± 0.35
UCCUAGCAAUAUUACGCGGC | -3.42 ± 0.44 | 
UCCUAGCAAUAUUACGCUGU | -2.52 ± 0.22 | -2.23 ± 0.27
UCCUAGCAAUAUUACGCUUG | -3.79 ± 0.21 | -2.46 ± 0.17
UCCUAGCAAUAUUACGUACU | -3.41 ± 0.3 | -2 ± 0.26
UCCUAGCAAUAUUACGUGAG | -2.64 ± 0.14 | -1.94 ± 0.17
UCCUAGCAAUAUUACGUUCA | -2.91 ± 0.35 | -2.38 ± 0.25
UCGAAGCAAUAUUACGACAA | -1.59 ± 0.14 | -1.07 ± 0.15
UCGAAGCAAUAUUACGAGCU | -3.7 ± 0.47 | -1.24 ± 0.39
UCGAAGCAAUAUUACGAGGC |  | -2.15 ± 0.49
UCGAAGCAAUAUUACGAUCA | -1.46 ± 0.18 | -0.436 ± 0.23
UCGAAGCAAUAUUACGCAAG | -2.17 ± 0.12 | -1.6 ± 0.13
UCGAAGCAAUAUUACGCAUA | -3.01 ± 0.36 | -2.72 ± 0.26
UCGAAGCAAUAUUACGCUGC | -3.55 ± 0.43 | -1.49 ± 0.4
UCGAAGCAAUAUUACGCUUG |  | -2.64 ± 0.26
UCGAAGCAAUAUUACGGACC | -3.46 ± 0.33 | -2.02 ± 0.34
UCGAAGCAAUAUUACGGAUU | -3.96 ± 0.32 | -2.56 ± 0.25
UCGAAGCAAUAUUACGGCAC | -1.74 ± 0.23 | -1.95 ± 0.32
UCGAAGCAAUAUUACGGCAG | -2.11 ± 0.097 | -0.963 ± 0.11
UCGAAGCAAUAUUACGGGAC | -3.19 ± 0.47 | -3.17 ± 0.33
UCGAAGCAAUAUUACGGUAC | -4.43 ± 0.39 | 
UCGAAGCAAUAUUACGGUUG | -1.65 ± 0.097 | -0.93 ± 0.14

Sequence | self-splicing fitness (ln) (30 °C) | self-splicing fitness (ln) (37 °C)
UCGAAGCAAUAUUACGUCUC | -2.49 ± 0.15 | -2.28 ± 0.32
UCGAAGCAAUAUUACGUCUU | -3.87 ± 0.14 | -2.29 ± 0.15
UCGAAGCAAUAUUACGUGCC | -2.86 ± 0.42 | 
UCGAAGCAAUAUUACGUGGC |  | -2.78 ± 0.23
UCGCAGCAAUAUUACGAACG | -2.63 ± 0.39 | -1.05 ± 0.3
UCGCAGCAAUAUUACGACGU | -1.46 ± 0.076 | -0.706 ± 0.074
UCGCAGCAAUAUUACGAGGA | -2.88 ± 0.19 | -0.7 ± 0.12
UCGCAGCAAUAUUACGAGUA | -2.36 ± 0.14 | -0.752 ± 0.12
UCGCAGCAAUAUUACGAGUU | -4.47 ± 0.28 | -1.95 ± 0.23
UCGCAGCAAUAUUACGCCGC |  | -1.21 ± 0.32
UCGCAGCAAUAUUACGCCUG | -3.14 ± 0.23 | -1.28 ± 0.2
UCGCAGCAAUAUUACGCGUC | -3.42 ± 0.16 | -1.8 ± 0.14
UCGCAGCAAUAUUACGCUGC | -2.62 ± 0.49 | -0.264 ± 0.26
UCGCAGCAAUAUUACGCUGU | -3.13 ± 0.14 | -3.02 ± 0.19
UCGCAGCAAUAUUACGGAAA | -2.71 ± 0.21 | -1.57 ± 0.17
UCGCAGCAAUAUUACGGAAC | -1.51 ± 0.32 | -2.53 ± 0.41
UCGCAGCAAUAUUACGGACC | -3.5 ± 0.41 | -2.69 ± 0.33
UCGCAGCAAUAUUACGGAGC | -3.54 ± 0.35 | -1.89 ± 0.26
UCGCAGCAAUAUUACGGAGU | -2.32 ± 0.21 | -1.92 ± 0.23
UCGCAGCAAUAUUACGGCAC | -1.94 ± 0.34 | -2.67 ± 0.29
UCGCAGCAAUAUUACGGCCA | -0.107 ± 0.091 | 0.246 ± 0.11
UCGCAGCAAUAUUACGGGGC | -2.52 ± 0.23 | -2.63 ± 0.27
UCGCAGCAAUAUUACGUACU |  | -1.86 ± 0.32
UCGCAGCAAUAUUACGUCCG | -0.808 ± 0.078 | -0.0675 ± 0.1
UCGGAGCAAUAUUACGAAAU | -3.14 ± 0.49 | 
